Measurements taken from paper PMC6430397, “The pharmacological properties of 3-arm or 4-arm DOTA constructs for conjugation to α-melanocyte-stimulating hormone analogues for melanoma imaging” (PLoS ONE, 2019).

Assay: Stability analysis in plasma, liver and kidney of mice, ex vivo TLC
Set-up: species or system mouse
Conditions: γ-counter, mean ± SD, n = 3 mice; for Fraction ratio of intact radiotracer, Plasma (%): B16-F1-bearing C57BL6 mice; for Fraction ratio of intact radiotracer, Plasma (%) / Fraction ratio of intact radiotracer, Liver (%): reverse-phase TLC; for Fraction ratio of intact radiotracer, Liver (%): liver homogenate
Experimental: All animal studies were conducted following approval by the Animal Care Committee of Kanazawa University (AP-122339). Fasted B16-F1-bearing C57BL6 male mice (5 weeks old) were administered ^111In-labeled 3-arm or 4-arm DOTA-α-MSH (3.7 MBq/mouse) via the tail vein. At 10, 30, 60, 120, and 180 min after injection, mice (n = 3 per time point) were euthanized with isoflurane, and blood and liver were collected and analyzed with thin layer chromatography (TLC). Briefly, 300 uL blood in a heparinized tube was centrifuged at 18,000 ×g at 4°C for 5 min. A total of 30 uL perchloric acid was added to the supernatant, which was centrifuged again, after which the final supernatant was spotted onto the TLC plate as plasma. Krebs-Ringer phosphate buffer (pH 7.4) was added to the liver samples, followed by homogenization with an ultrasonic homogenizer (SONIFIER250, Branson, MO, USA). Then, ethanol was added to the homogenate to remove proteins, and the sample was centrifuged at 18,000 ×g at 4°C for 5 min. The final supernatant was spotted onto the reverse-phase TLC plate, and the TLC spots were developed using 50 mM EDTA (pH 4–5) solvents. After development and complete drying, the TLC plates were cut into 21 fractions, and the radioactivity associated with each fraction was quantified using a γ-ray counter. The fraction ratios of ^111In^3+, ^111In-labeled 3-arm or 4-arm DOTA-α-MSH, and all metabolites were calculated by dividing the radioactive counts for each fraction by the total radioactivity counts.

[1] = 10 min after i.v. injection 3.7 MBq/mouse
[2] = 30 min after i.v. injection 3.7 MBq/mouse
[3] = 60 min after i.v. injection 3.7 MBq/mouse
[4] = 120 min after i.v. injection 3.7 MBq/mouse
[5] = 180 min after i.v. injection 3.7 MBq/mouse

SMILES: CSCC[C@H](NC(=O)[C@H](CO)NC(=O)[C@H](Cc1ccc(O)cc1)NC(=O)[C@H](CO)NC(C)=O)C(=O)N[C@@H](CCC(=O)O)C(=O)N[C@@H](Cc1c[nH]cn1)C(=O)N[C@@H](Cc1ccccc1)C(=O)N[C@@H](CCCNC(=N)N)C(=O)N[C@@H](Cc1c[nH]c2ccccc12)C(=O)NCC(=O)N[C@@H](CCCCNC(=S)Nc1ccc(C[C@H]2CN(CC(=O)O)CCN(CC(=O)O)CCN(CC(=O)O)CCN2CC(=O)O)cc1)C(=O)N1CCC[C@H]1C(=O)N[C@H](C(=O)O)C(C)C [^111In-labeled 4-arm DOTA-α-MSH, metal not drawn]
- Fraction ratio of intact radiotracer, Plasma (%) [1]: 96.0 ± 2.5%
- Fraction ratio of intact radiotracer, Liver (%) [1]: 95.1 ± 2.9%
- Fraction ratio of intact radiotracer, Plasma (%) [2]: 95.8 ± 2.6%
- Fraction ratio of intact radiotracer, Kidney (%) (30 min after i.v. injection 3.7 MBq/mouse, kidney, TLC): 95.8 ± 1.9%
- Fraction ratio of intact radiotracer, Liver (%) [2]: 94.9 ± 2.1%
- Fraction ratio of intact radiotracer, Plasma (%) [3]: 92.1 ± 2.1%
- Fraction ratio of intact radiotracer, Liver (%) [3]: 91.3 ± 3.2%
- Fraction ratio of intact radiotracer, Plasma (%) [4]: 84.2 ± 2.2%
- Fraction ratio of intact radiotracer, Liver (%) [4]: 78.6 ± 4.9%
- Fraction ratio of intact radiotracer, Plasma (%) [5]: 80.8 ± 2.3%
- Fraction ratio of intact radiotracer, Liver (%) [5]: 76.2 ± 4.1%
